Source: patent US20260209362A1 (VIB VZW, published 2026)

T1: biotinylated recombinant human IL-12Rβ2 (human, UniProt Q99665 24-622, random biotinylated)
T1 construct: Recombinant protein produced in-house; also called hIL-12RB2; human IL-12RB2
T1 sequence: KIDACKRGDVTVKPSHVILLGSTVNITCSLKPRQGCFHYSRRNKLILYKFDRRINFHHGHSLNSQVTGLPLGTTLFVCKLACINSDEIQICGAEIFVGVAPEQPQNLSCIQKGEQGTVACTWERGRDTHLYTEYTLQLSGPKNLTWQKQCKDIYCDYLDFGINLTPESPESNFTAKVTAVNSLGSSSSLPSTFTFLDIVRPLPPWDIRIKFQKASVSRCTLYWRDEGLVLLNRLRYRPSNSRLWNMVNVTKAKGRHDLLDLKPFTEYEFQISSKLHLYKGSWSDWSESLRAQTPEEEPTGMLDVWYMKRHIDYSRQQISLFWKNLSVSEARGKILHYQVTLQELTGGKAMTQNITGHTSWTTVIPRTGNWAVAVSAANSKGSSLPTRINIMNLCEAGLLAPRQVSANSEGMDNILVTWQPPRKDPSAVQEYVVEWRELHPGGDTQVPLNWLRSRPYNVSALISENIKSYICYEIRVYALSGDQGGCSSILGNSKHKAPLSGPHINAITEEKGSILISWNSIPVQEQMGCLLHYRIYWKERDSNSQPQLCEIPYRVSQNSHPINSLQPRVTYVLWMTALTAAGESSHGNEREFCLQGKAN

T2: biotinylated recombinant mouse IL-12Rβ2 (produced in-house) (mouse, UniProt P97378 24-637, random biotinylated)
T2 construct: also called mIL-12RB2; mIL12RB2
T2 sequence: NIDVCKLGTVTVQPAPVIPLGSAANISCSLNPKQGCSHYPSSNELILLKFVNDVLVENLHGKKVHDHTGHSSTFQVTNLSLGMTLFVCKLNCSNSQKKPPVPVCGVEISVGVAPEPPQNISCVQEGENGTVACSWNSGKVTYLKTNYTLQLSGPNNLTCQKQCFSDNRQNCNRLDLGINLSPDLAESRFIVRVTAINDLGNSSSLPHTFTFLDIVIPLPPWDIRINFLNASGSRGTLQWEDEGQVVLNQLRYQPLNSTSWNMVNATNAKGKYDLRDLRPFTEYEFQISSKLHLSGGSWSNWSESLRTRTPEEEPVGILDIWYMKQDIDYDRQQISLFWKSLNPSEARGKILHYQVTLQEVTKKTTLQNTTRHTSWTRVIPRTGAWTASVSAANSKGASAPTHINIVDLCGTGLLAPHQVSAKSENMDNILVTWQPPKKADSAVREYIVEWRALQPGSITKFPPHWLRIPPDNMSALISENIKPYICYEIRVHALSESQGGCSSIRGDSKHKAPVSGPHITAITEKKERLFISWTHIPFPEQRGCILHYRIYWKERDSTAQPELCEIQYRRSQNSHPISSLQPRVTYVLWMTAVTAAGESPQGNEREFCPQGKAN

T3: mouse IL-12Rβ2 expressed on cells (mouse, UniProt P97378 24-874)
T3 construct: HEK293T cells, stably transduced (cDNA NM_008354); also called mIL-12RB2
T3 sequence: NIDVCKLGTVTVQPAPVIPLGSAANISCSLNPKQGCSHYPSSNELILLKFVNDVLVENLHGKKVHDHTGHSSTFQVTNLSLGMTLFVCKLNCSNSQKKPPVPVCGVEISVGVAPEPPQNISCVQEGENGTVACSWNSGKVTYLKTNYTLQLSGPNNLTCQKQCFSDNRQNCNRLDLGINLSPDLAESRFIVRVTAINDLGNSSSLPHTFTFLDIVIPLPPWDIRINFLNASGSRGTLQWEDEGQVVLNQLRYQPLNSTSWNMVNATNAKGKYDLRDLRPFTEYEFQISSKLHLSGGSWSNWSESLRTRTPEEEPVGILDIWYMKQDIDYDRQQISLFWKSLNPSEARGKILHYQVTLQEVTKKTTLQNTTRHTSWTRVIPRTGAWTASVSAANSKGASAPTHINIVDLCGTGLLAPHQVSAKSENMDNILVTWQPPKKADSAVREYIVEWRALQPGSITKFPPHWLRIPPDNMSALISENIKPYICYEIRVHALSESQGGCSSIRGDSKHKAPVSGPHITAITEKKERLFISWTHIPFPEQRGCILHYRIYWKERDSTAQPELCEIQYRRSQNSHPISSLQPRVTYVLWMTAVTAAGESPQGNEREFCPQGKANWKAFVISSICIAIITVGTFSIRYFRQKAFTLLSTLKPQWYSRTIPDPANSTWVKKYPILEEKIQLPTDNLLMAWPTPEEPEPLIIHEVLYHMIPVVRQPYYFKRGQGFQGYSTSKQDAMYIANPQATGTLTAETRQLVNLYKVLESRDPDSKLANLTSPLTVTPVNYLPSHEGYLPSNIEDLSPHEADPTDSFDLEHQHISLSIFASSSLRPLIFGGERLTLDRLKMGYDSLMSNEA

T4: biotinylated recombinant human IL-12Rβ2 (produced in-house) (human, UniProt Q99665 24-622, random biotinylated)
T4 construct: also called hIL-12RB2; hIL12RB2
T4 sequence: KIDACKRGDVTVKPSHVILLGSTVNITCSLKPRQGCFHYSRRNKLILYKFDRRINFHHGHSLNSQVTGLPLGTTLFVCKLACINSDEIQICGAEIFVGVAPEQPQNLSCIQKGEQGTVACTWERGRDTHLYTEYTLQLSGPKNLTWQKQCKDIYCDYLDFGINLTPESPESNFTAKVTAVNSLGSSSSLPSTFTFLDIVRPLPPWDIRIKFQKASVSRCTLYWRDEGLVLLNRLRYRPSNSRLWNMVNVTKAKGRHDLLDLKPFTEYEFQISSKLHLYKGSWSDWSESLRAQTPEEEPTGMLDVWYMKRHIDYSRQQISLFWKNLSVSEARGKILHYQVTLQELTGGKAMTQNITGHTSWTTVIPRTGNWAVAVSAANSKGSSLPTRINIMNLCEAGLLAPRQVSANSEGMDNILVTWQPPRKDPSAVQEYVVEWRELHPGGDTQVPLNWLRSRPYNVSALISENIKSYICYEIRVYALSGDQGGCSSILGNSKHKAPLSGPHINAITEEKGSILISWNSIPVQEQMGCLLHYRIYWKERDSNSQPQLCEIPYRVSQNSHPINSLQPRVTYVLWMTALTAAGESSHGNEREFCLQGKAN

T5: biotinylated recombinant mouse IL-12Rβ2 (mouse, UniProt P97378 24-637, random biotinylated)
T5 construct: Recombinant protein produced in-house, biotinylated; also called mIL-12RB2; mouse IL-12RB2
T5 sequence: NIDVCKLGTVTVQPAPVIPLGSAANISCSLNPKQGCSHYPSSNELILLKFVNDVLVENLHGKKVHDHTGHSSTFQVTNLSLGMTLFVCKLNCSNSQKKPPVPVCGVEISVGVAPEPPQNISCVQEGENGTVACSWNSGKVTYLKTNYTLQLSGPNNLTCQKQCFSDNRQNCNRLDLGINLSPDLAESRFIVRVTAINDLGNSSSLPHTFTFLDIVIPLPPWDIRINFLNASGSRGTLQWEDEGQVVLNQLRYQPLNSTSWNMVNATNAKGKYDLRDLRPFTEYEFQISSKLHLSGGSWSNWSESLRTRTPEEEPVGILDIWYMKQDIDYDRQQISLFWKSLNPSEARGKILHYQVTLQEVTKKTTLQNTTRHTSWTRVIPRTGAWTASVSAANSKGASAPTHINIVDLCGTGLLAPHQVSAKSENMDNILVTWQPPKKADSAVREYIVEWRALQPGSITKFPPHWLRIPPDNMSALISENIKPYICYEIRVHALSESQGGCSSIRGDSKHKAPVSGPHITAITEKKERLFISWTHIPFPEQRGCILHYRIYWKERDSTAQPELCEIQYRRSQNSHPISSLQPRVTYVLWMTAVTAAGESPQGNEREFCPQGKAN


Columns and labels:
[1] = biological target: T1, biotinylated recombinant human IL-12Rβ2; assay: ELISA, P.E., biotinylated antigen
[2] = biological target: biotinylated recombinant mouse IL-12Rβ2 (mouse) (UniProt P97378); assay: ELISA, P.E., biotinylated antigen
[3] = biological target: T1, biotinylated recombinant human IL-12Rβ2; assay: BLI, P.E., off-rate ranking
[4] = biological target: T2, biotinylated recombinant mouse IL-12Rβ2 …; assay: ELISA, P.E. VHH on biotinylated mIL-12RB2, signal ratio to control well
[5] = biological target: T3, mouse IL-12Rβ2 expressed on cells; assay: flow cytometry, P.E. VHH on HEK293T cells stably expressing mIL-12RB2
[6] = biological target: T4, biotinylated recombinant human IL-12Rβ2 …; assay: ELISA, P.E. VHH on biotinylated hIL-12RB2, signal ratio to control well
[7] = biological target: T4, biotinylated recombinant human IL-12Rβ2 …; assay: ELISA, P.E. VHH on biotinylated hIL-12RB2
[8] = biological target: T3, mouse IL-12Rβ2 expressed on cells; assay: flow cytometry, P.E. VHH on HEK293T cells expressing mIL-12RB2
[9] = biological target: T5, biotinylated recombinant mouse IL-12Rβ2; assay: ELISA, periplasmic extract on biotinylated mIL-12Rβ2, signal over control wells
[10] = biological target: biotinylated recombinant human IL-12Rβ2 (human) (UniProt Q99665); assay: ELISA, periplasmic extract on biotinylated hIL-12Rβ2, signal over control wells

Row | Binder | ELISA hIL-12RB2/control [1] | ELISA mIL-12RB2/control [2] | Response [3] | koff [3] [s⁻¹] | ELISA mIL12RB2/control [4] | % cells bound [5] [%] | dMFI [5] | ELISA hIL12RB2/control [6] | binding result [7] | % cells bound [8] [%] | dMFI [8] | ELISA binding mIL-12RB2/control [9] [ratio] | ELISA binding hIL-12RB2/control [10]
1 | anti-IL-12Rβ2 VHH clone 3CRH17 (clone ID 20376) (VHH, not shown: small tags and cut ends, periplasmic extract) VHH: QVQLQESGGGLVQAGGSLVLSCAASGSAALIFLMSWYRQAPGKQRELVAEVSRYGSTTYADSVEGRFTISRDNAKNIVDLQMNSLKPEDTAVYYCKADQYYGDSLRSSWGRGTQVTVSS | 9.8 | 2.85 | 0.53 | 0.00446 | – | – | – | – | – | – | – | – | –
2 | anti-IL-12Rβ2 VHH clone 2CAMS52 (VHH, not shown: small tags and cut ends, tested as periplasmic extract; also called 20535; 2CAMSSZ) VHH: QVQLQESGGGLVQPGASLRLSCATSGPTLSTYAMGWFRQAPGKEREVVATISWSGGRVTYVDSVKGRFTISRDNAKNTAYLQMNRLRPDDTAVYTCAARESDYGAYDYWGQGTQVTVSS | – | – | – | – | 5.41 | 60.9 | 342 | 0.97 | no binding | 60.9 | 342 | – | –
3 | anti-IL-12Rβ2 VHH clone 3CAM1 (VHH, not shown: small tags and cut ends, tested as periplasmic extract) VHH: QVQLQESGGGLVQAGGSLRLSCAASGRTFGSHRMGWFRQAPGQEREFVAAIAWRGGTQYYTDSVKGRFTISRDNANNTVYLQMNSLKPEDAAVYYCVAGEGSSWGDITDPRRYVFWGQGTQVTVSS | – | – | – | – | 3.3 | 63 | 376 | 1.2 | no binding | 63 | 376 | – | –

The remaining lines, values ahead:

Row | ELISA hIL-12RB2/control [1] | ELISA mIL-12RB2/control [2] | Response [3] | koff [3] [s⁻¹] | ELISA mIL12RB2/control [4] | % cells bound [5] [%] | dMFI [5] | ELISA hIL12RB2/control [6] | binding result [7] | % cells bound [8] [%] | dMFI [8] | ELISA binding mIL-12RB2/control [9] [ratio] | ELISA binding hIL-12RB2/control [10] | Binder
4 | 10 | 2.11 | 0.617 | 0.00495 | – | – | – | – | – | – | – | – | – | anti-IL-12Rβ2 VHH clone 3CRH67 (clone ID 20387) (VHH, not shown: small tags and cut ends, periplasmic extract) VHH: QVQLQESGGGLVQAGGSLVLSCAASGSAALIFLMSWYRQAPGKQRELVAEVSRYGSTTYADSVEGRFTISRDNAKNIVDLQMNSLKPEDTAAYYCKADQYYGDSLRSSWGRGTQVTVSS
5 | – | – | – | – | 5.98 | 57.9 | 315 | 1.25 | no binding | 57.9 | 315 | – | – | anti-IL-12Rβ2 VHH clone 3CAM65 (VHH, not shown: small tags and cut ends, tested as periplasmic extract; also called 20513) VHH: QVQLQESGGGLVQAGGSLRLSCAPSGRTFTTYVMGWFRQAPGKEREFVAHISWSGGRTYYADSVKGRFTISRDNAKNTSYLQMNSLKPEDTAVYYCAAARSDAVRIGYAEGYEYWGQGTQVTVSS
6 | – | – | – | – | – | – | – | – | – | – | – | 18 | 2.18 | anti-IL-12Rβ2 VHH clone 20450 (VHH, not shown: small tags and cut ends, tested as periplasmic extract; also called 2CRM61) VHH: QVQLQESGGGLVQPGGSLRLSCAASGFTISNYAMSWVRQAPGKGLEWVSSIGSNIASTNYADSVKGRFTISRDNAKNTLYLQMNSLKPEDTAVYYCAKASQNHSPPGQGTQVTVSS
7 | – | – | – | – | – | – | – | – | – | – | – | 16.6 | 2.43 | anti-IL-12Rβ2 VHH clone 20460 (VHH, not shown: small tags and cut ends, tested as periplasmic extract; also called 3CRM63) VHH: QVQLQESGGGLVQAGGSLRLSCAASGFTLGSYAMSWVRQAPGKGLEWVSSISSSGTNTNYADSVKGRFTISRDNAKNTLYLQMNSLKPEDTAVYYCAKASQNHSPPGQGTPVTVSS
8 | – | – | – | – | 47.4 | 62.2 | 351 | 1.31 | no binding | 62.2 | 351 | – | – | anti-IL-12Rβ2 VHH clone 3CAM57 (VHH, not shown: small tags and cut ends, tested as periplasmic extract; also called 20512; 3CAMS7) VHH: QVQLQESGGGLVQAGGSLRLSCTPSGRTFSTLAMGWFRQAPGKEREVVATISWSGGRTYYASSVKSRFTISRDNAKNTAYLQMNSLRPDDTAVYYCAARGTDYGAYDYWGQGTQVTVSS
